Measurements as given in US20200199241A1 (Chugai, published 2020).

How the values were obtained:
Assay in all cases: SPR (Biacore), bound amount, IL6R-BF648/IL6R-L = 100
FcγRIIb = target: T1, FcγRIIb (human, UniProt P31994 43-217, limits assumed)
T1 construct: also called FcgRIIb; FcγIIB
T1 sequence: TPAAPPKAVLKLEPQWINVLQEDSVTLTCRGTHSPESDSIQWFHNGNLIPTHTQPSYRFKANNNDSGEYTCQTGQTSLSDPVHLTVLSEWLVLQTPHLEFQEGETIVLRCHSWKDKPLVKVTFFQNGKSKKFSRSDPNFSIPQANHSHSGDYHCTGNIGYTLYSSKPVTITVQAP
Description: (§1) According to the following method, relative binding activities were calculated for the results of analyzing interactions with the respective FcγRs.

FcγRIIa type H = target: T2, FcγRIIa type H (human, UniProt P12318 36-217)
T2 construct: also called FcγRIIaH; FcγRIIH
T2 sequence: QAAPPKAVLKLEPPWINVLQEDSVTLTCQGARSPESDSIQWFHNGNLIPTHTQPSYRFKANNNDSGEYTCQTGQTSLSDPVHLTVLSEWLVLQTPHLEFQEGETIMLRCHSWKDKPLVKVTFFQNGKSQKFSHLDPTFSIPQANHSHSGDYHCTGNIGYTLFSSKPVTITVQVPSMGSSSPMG
Description: as §1

FcγRIa = target: T3, FcγRIa (human, UniProt P12314 16-292, limits assumed)
T3 construct: also called FcgRIa; CD64
T3 sequence (P12314 16-292 limits assumed): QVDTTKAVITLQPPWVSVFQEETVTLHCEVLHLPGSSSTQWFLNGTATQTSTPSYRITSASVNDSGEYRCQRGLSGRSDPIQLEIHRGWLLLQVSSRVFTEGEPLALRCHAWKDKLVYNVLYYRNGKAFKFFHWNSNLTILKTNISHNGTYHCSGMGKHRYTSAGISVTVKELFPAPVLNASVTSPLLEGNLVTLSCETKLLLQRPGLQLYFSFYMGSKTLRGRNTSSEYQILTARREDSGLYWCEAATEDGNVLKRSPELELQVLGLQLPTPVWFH
Description: as §1

FcγRIIIa type V = target: T4, FcγRIIIa type V (human, UniProt P08637 17-208, limits assumed)
T4 construct: also called FcγRIIIaV; FcgRIIIaV
T4 sequence (P08637 other isoform, or with tags, fused parts or gaps limits assumed): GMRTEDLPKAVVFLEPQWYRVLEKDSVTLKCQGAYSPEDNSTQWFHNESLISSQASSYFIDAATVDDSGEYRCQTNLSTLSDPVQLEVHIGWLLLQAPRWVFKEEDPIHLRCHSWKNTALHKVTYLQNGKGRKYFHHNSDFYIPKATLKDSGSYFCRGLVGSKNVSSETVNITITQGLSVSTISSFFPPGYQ
Description: as §1

B1: IL6R-BP176/IL6R-L (antibody, human IgG1)
heavy: QVQLQESGPGLVKPSETLSLTCAVSGHSISHDHAWSWVRQPPGEGLEWIGFISYSGITNYNPSLQGRVTISRDNSKNTLYLQMNSLRAEDTAVYYCARSLARTTAMDYWGEGTLVTVSSASTKGPSVFPLAPSSKSTSGGTAALGCLVKDYFPEPVTVSWNSGALTSGVHTFPAVLQSSGLYSLSSVVTVPSSSLGTQTYICNVNHKPSNTKVDKKVEPKSCDKTHTCPPCPAPDLLGGDSVFLFPPKPKDTLMISRTPEVTCVVVDVSHEDPEVKFNWYVDGVEVHNAKTKPREEQYNSTYRVVSVLTVLHQDWLNGKEYKCKVSNDALPKPIEKTISKAKGQPREPQVYTLPPSRDELTKNQVSLTCLVKGFYPSDIAVEWESNGQPENNYKTTPPVLDSDGSFFLYSKLTVDKSRWQQGNVFSCSVMHEALHNHYTQESLSLSP
light: DIQMTQSPSSLSASVGDRVTITCRASQDISSYLNWYQQKPGKAPKLLIYYTSRLHSGVPSRFSGSGSGTDFTFTISSLQPEDIATYYCQQGNTLPYTFGQGTKVEIK
notes: IgG1; Fc variant of IL6R-B3; copies: 2 + 2
B1 was tested, and the relative binding activity (FcγRIIb) was 147 % of control, the relative binding activity (FcγRIIa type H) was 128 % of control and the relative binding activity (FcγRIa) was 102 % of control.

B2: IL6R-BP210/IL6R-L (antibody, human IgG1)
heavy: QVQLQESGPGLVKPSETLSLTCAVSGHSISHDHAWSWVRQPPGEGLEWIGFISYSGITNYNPSLQGRVTISRDNSKNTLYLQMNSLRAEDTAVYYCARSLARTTAMDYWGEGTLVTVSSASTKGPSVFPLAPSSKSTSGGTAALGCLVKDYFPEPVTVSWNSGALTSGVHTFPAVLQSSGLYSLSSVVTVPSSSLGTQTYICNVNHKPSNTKVDKKVEPKSCDKTHTCPPCPAPELLGDDSVFLFPPKPKDTLMISRTPEVTCVVVDVSDEDGEVKFNWYVDGVEVHNAKTKPREEQYNSTYRVVSVLTVLHQDWLNGKEYKCKVSNKALPRPIEKTISKAKGQPREPQVYTLPPSRDELTKNQVSLTCLVKGFYPSDIAVEWESNGQPENNYKTTPPVLDSDGSFFLYSKLTVDKSRWQQGNVFSCSVMHEALHNHYTQESLSLSP
light: DIQMTQSPSSLSASVGDRVTITCRASQDISSYLNWYQQKPGKAPKLLIYYTSRLHSGVPSRFSGSGSGTDFTFTISSLQPEDIATYYCQQGNTLPYTFGQGTKVEIK
notes: as for B1
With B2 the relative binding activity (FcγRIIb) was 187 % of control, the relative binding activity (FcγRIIa type H) was 279 % of control and the relative binding activity (FcγRIa) was 57 % of control.

B3: IL6R-BP193/IL6R-L (antibody, human IgG1)
heavy: QVQLQESGPGLVKPSETLSLTCAVSGHSISHDHAWSWVRQPPGEGLEWIGFISYSGITNYNPSLQGRVTISRDNSKNTLYLQMNSLRAEDTAVYYCARSLARTTAMDYWGEGTLVTVSSASTKGPSVFPLAPSSKSTSGGTAALGCLVKDYFPEPVTVSWNSGALTSGVHTFPAVLQSSGLYSLSSVVTVPSSSLGTQTYICNVNHKPSNTKVDKKVEPKSCDKTHTCPPCPAPDLLGGDSVFLFPPKPKDTLMISRTPEVTCVVVDVSDEDGEVKFNWYVDGVEVHNAKTKPREEQYNSTYRVVSVLTVLHQDWLNGKEYKCKVSNKALPKPIEKTISKAKGQPREPQVYTLPPSRDELTKNQVSLTCLVKGFYPSDIAVEWESNGQPENNYKTTPPVLDSDGSFFLYSKLTVDKSRWQQGNVFSCSVMHEALHNHYTQESLSLSP
light: DIQMTQSPSSLSASVGDRVTITCRASQDISSYLNWYQQKPGKAPKLLIYYTSRLHSGVPSRFSGSGSGTDFTFTISSLQPEDIATYYCQQGNTLPYTFGQGTKVEIK
notes: as for B1
In the case of B3, the relative binding activity (FcγRIIb) is reported as 173 % of control, the relative binding activity (FcγRIIa type H) is reported as 154 % of control and the relative binding activity (FcγRIa) is reported as 113 % of control.

B4: IL6R-BP205/IL6R-L (antibody, human IgG1)
heavy: QVQLQESGPGLVKPSETLSLTCAVSGHSISHDHAWSWVRQPPGEGLEWIGFISYSGITNYNPSLQGRVTISRDNSKNTLYLQMNSLRAEDTAVYYCARSLARTTAMDYWGEGTLVTVSSASTKGPSVFPLAPSSKSTSGGTAALGCLVKDYFPEPVTVSWNSGALTSGVHTFPAVLQSSGLYSLSSVVTVPSSSLGTQTYICNVNHKPSNTKVDKKVEPKSCDKTHTCPPCPAPDLLGGDSVFLFPPKPKDTLMISRTPEVTCVVVDVSHEDGEVKFNWYVDGVEVHNAKTKPREEQDNSTYRVVSVLTVLHQDWLNGKEYKCKVSNKALPRPIEKTISKAKGQPREPQVYTLPPSRDELTKNQVSLTCLVKGFYPSDIAVEWESNGQPENNYKTTPPVLDSDGSFFLYSKLTVDKSRWQQGNVFSCSVMHEALHNHYTQESLSLSP
light: DIQMTQSPSSLSASVGDRVTITCRASQDISSYLNWYQQKPGKAPKLLIYYTSRLHSGVPSRFSGSGSGTDFTFTISSLQPEDIATYYCQQGNTLPYTFGQGTKVEIK
notes: as for B1
For B4, the relative binding activity (FcγRIIb) was 167 % of control, the relative binding activity (FcγRIIa type H) was 108 % of control and the relative binding activity (FcγRIa) was 97 % of control.

B5: IL6R-BP181/IL6R-L (antibody, human IgG1)
heavy: QVQLQESGPGLVKPSETLSLTCAVSGHSISHDHAWSWVRQPPGEGLEWIGFISYSGITNYNPSLQGRVTISRDNSKNTLYLQMNSLRAEDTAVYYCARSLARTTAMDYWGEGTLVTVSSASTKGPSVFPLAPSSKSTSGGTAALGCLVKDYFPEPVTVSWNSGALTSGVHTFPAVLQSSGLYSLSSVVTVPSSSLGTQTYICNVNHKPSNTKVDKKVEPKSCDKTHTCPPCPAPDLLGGDSVFLFPPKPKDTLMISRTPEVTCVVVDVSHEDGEVKFNWYVDGVEVHNAKTKPREEQYNSTYRVVSVLTVLHQDWLNGKEYKCKVSNAALPKPIEKTISKAKGQPREPQVYTLPPSRDELTKNQVSLTCLVKGFYPSDIAVEWESNGQPENNYKTTPPVLDSDGSFFLYSKLTVDKSRWQQGNVFSCSVMHEALHNHYTQESLSLSP
light: DIQMTQSPSSLSASVGDRVTITCRASQDISSYLNWYQQKPGKAPKLLIYYTSRLHSGVPSRFSGSGSGTDFTFTISSLQPEDIATYYCQQGNTLPYTFGQGTKVEIK
notes: as for B1
In the case of B5, the relative binding activity (FcγRIIIa type V) is reported as 122 % of control and the relative binding activity (FcγRIIa type H) is reported as 150 % of control.

B6: IL6R-BP201/IL6R-L (antibody, human IgG1)
heavy: QVQLQESGPGLVKPSETLSLTCAVSGHSISHDHAWSWVRQPPGEGLEWIGFISYSGITNYNPSLQGRVTISRDNSKNTLYLQMNSLRAEDTAVYYCARSLARTTAMDYWGEGTLVTVSSASTKGPSVFPLAPSSKSTSGGTAALGCLVKDYFPEPVTVSWNSGALTSGVHTFPAVLQSSGLYSLSSVVTVPSSSLGTQTYICNVNHKPSNTKVDKKVEPKSCDKTHTCPPCPAPDLLGDDSVFLFPPKPKDTLMISRTPEVTCVVVDVSHEDGEVKFNWYVDGVEVHNAKTKPREEQYNSTYRVVSVLTVLHQDWLNGKEYKCKVSNKALPRPIEKTISKAKGQPREPQVYTLPPSRDELTKNQVSLTCLVKGFYPSDIAVEWESNGQPENNYKTTPPVLDSDGSFFLYSKLTVDKSRWQQGNVFSCSVMHEALHNHYTQESLSLSP
light: DIQMTQSPSSLSASVGDRVTITCRASQDISSYLNWYQQKPGKAPKLLIYYTSRLHSGVPSRFSGSGSGTDFTFTISSLQPEDIATYYCQQGNTLPYTFGQGTKVEIK
notes: as for B1
With B6 the relative binding activity (FcγRIIb) was 186 % of control, the relative binding activity (FcγRIIa type H) was 359 % of control and the relative binding activity (FcγRIa) was 57 % of control.

B7: IL6R-BP202/IL6R-L (antibody, human IgG1)
heavy: QVQLQESGPGLVKPSETLSLTCAVSGHSISHDHAWSWVRQPPGEGLEWIGFISYSGITNYNPSLQGRVTISRDNSKNTLYLQMNSLRAEDTAVYYCARSLARTTAMDYWGEGTLVTVSSASTKGPSVFPLAPSSKSTSGGTAALGCLVKDYFPEPVTVSWNSGALTSGVHTFPAVLQSSGLYSLSSVVTVPSSSLGTQTYICNVNHKPSNTKVDKKVEPKSCDKTHTCPPCPAPELLGDDSVFLFPPKPKDTLMISRTPEVTCVVVDVSHEDGEVKFNWYVDGVEVHNAKTKPREEQYNSTYRVVSVLTVLHQDWLNGKEYKCKVSNAALPRPIEKTISKAKGQPREPQVYTLPPSRDELTKNQVSLTCLVKGFYPSDIAVEWESNGQPENNYKTTPPVLDSDGSFFLYSKLTVDKSRWQQGNVFSCSVMHEALHNHYTQESLSLSP
light: DIQMTQSPSSLSASVGDRVTITCRASQDISSYLNWYQQKPGKAPKLLIYYTSRLHSGVPSRFSGSGSGTDFTFTISSLQPEDIATYYCQQGNTLPYTFGQGTKVEIK
notes: as for B1
B7 was tested, and the relative binding activity (FcγRIIb) was 185 % of control, the relative binding activity (FcγRIIa type H) was 285 % of control and the relative binding activity (FcγRIa) was 43 % of control.

B8: IL6R-BP178/IL6R-L (antibody, human IgG1)
heavy: QVQLQESGPGLVKPSETLSLTCAVSGHSISHDHAWSWVRQPPGEGLEWIGFISYSGITNYNPSLQGRVTISRDNSKNTLYLQMNSLRAEDTAVYYCARSLARTTAMDYWGEGTLVTVSSASTKGPSVFPLAPSSKSTSGGTAALGCLVKDYFPEPVTVSWNSGALTSGVHTFPAVLQSSGLYSLSSVVTVPSSSLGTQTYICNVNHKPSNTKVDKKVEPKSCDKTHTCPPCPAPDLLGDDSVFLFPPKPKDTLMISRTPEVTCVVVDVSHEDGEVKFNWYVDGVEVHNAKTKPREEQYNSTYRVVSVLTVLHQDWLNGKEYKCKVSNKALPKPIEKTISKAKGQPREPQVYTLPPSRDELTKNQVSLTCLVKGFYPSDIAVEWESNGQPENNYKTTPPVLDSDGSFFLYSKLTVDKSRWQQGNVFSCSVMHEALHNHYTQESLSLSP
light: DIQMTQSPSSLSASVGDRVTITCRASQDISSYLNWYQQKPGKAPKLLIYYTSRLHSGVPSRFSGSGSGTDFTFTISSLQPEDIATYYCQQGNTLPYTFGQGTKVEIK
notes: as for B1
In the case of B8, the relative binding activity (FcγRIIb) is reported as 179 % of control, the relative binding activity (FcγRIIa type H) is reported as 259 % of control and the relative binding activity (FcγRIa) is reported as 51 % of control.

B9: IL6R-BP212/IL6R-L (antibody, human IgG1)
heavy: QVQLQESGPGLVKPSETLSLTCAVSGHSISHDHAWSWVRQPPGEGLEWIGFISYSGITNYNPSLQGRVTISRDNSKNTLYLQMNSLRAEDTAVYYCARSLARTTAMDYWGEGTLVTVSSASTKGPSVFPLAPSSKSTSGGTAALGCLVKDYFPEPVTVSWNSGALTSGVHTFPAVLQSSGLYSLSSVVTVPSSSLGTQTYICNVNHKPSNTKVDKKVEPKSCDKTHTCPPCPAPDLLGGDSVFLFPPKPKDTLMISRTPEVTCVVVDVSDEDGEVKFNWYVDGVEVHNAKTKPREEQDNSTYRVVSVLTVLHQDWLNGKEYKCKVSNKALPRPIEKTISKAKGQPREPQVYTLPPSRDELTKNQVSLTCLVKGFYPSDIAVEWESNGQPENNYKTTPPVLDSDGSFFLYSKLTVDKSRWQQGNVFSCSVMHEALHNHYTQESLSLSP
light: DIQMTQSPSSLSASVGDRVTITCRASQDISSYLNWYQQKPGKAPKLLIYYTSRLHSGVPSRFSGSGSGTDFTFTISSLQPEDIATYYCQQGNTLPYTFGQGTKVEIK
notes: as for B1
For B9, the relative binding activity (FcγRIIb) was 173 % of control, the relative binding activity (FcγRIIa type H) was 135 % of control and the relative binding activity (FcγRIa) was 117 % of control.
